Data on 1 molecule can be found in PMC12232145 (BMC Microbiology, 2025).

This assay addresses human plasminogen (human, UniProt P00747 20-810). Nature of the assay: SPR. On the technique in general: SPR reads the build-up and loss of mass on a sensor chip optically.

human plasminogen, sequence (P00747 20-810): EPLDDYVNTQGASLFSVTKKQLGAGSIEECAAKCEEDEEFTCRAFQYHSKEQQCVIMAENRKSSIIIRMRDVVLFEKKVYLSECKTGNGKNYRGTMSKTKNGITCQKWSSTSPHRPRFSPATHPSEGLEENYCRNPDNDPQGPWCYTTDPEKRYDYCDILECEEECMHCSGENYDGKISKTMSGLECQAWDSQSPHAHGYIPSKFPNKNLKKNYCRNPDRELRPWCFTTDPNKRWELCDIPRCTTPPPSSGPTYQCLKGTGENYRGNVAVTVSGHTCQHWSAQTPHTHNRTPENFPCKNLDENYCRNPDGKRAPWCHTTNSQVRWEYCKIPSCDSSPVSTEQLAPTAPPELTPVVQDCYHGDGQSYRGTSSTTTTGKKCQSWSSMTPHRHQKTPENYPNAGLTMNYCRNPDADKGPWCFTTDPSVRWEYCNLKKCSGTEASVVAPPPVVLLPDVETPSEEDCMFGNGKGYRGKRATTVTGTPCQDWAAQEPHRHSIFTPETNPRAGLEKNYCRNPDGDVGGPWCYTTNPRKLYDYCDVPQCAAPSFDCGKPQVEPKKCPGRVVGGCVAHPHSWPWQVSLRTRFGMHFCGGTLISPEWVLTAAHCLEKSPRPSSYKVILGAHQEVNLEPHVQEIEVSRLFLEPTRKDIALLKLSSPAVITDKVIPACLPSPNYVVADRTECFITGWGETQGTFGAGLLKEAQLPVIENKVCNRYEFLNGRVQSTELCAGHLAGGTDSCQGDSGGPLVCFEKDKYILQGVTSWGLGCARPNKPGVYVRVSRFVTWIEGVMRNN

B1: recombinant FabG (3-ketoacyl-ACP reductase) of Streptococcus suis serotype 2 strain ZY05719 (natural protein, UniProt A0A0H3MXL9 1-244, looked up)
chain: MELTNKNVFVTGSSRGIGLAIAHKFASLGANVVLNGRGQLGQDLLDSFADYGVKVLAISGDISSAQDAKRMVAEAIETLGSVDILVNNAGITKDGMALRMTEEDFDTVLKVNLTGTFNMTQAVLKPMTKAREGAIINLSSVSGLIGNAGQANYSASKAGVIGFTKAIAREVAGRNVRVNAIAPGFIQSDMTDVLSDKIKEAMTAQIPMKRFGATEEVADVAVFLAKQEYLTGQVIAVDGGLTMQ
B1: the affinity, expressed as Kd, was 1.72 nM.
